# Data from publication PMC9482650, “Quantitative fragmentomics allow affinity mapping of interactomes” (Nature Communications, 2022).
# T1: APBA1_2, Q02410
# T1 sequence (Q02410 742-832, limits assumed, looked up): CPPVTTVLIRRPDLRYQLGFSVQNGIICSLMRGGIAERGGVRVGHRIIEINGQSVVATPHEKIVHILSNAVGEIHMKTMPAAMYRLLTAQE
# T2: APBA2_1, Q99767
# T2 sequence (Q99767 563-664, limits assumed, looked up): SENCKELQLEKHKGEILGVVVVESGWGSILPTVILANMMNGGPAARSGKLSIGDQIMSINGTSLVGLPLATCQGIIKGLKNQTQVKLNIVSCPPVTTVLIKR
# T3: ARHGAP21, Q5T5U3
# T3 sequence (Q5T5U3 45-169, limits assumed, looked up): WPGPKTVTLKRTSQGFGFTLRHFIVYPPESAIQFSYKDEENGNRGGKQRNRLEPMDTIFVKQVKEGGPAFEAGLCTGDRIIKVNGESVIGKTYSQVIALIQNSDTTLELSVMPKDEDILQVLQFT
# T4: DFNB31_3, Q9P202
# T4 sequence (Q9P202 811-907, limits assumed, looked up): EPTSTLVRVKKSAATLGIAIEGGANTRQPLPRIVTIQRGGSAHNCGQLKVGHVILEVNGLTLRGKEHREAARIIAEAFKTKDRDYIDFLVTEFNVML
# T5: DLG3_3, Q92796
# T5 sequence (Q92796 374-475, limits assumed, looked up): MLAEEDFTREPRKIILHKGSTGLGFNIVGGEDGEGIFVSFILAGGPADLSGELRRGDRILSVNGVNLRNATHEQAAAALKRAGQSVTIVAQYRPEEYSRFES
# T6: GRIP1_4, Q9Y3R0
# T6 sequence (Q9Y3R0 467-571, limits assumed, looked up): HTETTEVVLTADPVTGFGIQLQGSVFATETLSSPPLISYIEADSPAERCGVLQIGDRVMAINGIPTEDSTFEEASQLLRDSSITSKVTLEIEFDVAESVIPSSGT
# T7: HTRA3, P83110
# T7 sequence (P83110 354-453, limits assumed, looked up): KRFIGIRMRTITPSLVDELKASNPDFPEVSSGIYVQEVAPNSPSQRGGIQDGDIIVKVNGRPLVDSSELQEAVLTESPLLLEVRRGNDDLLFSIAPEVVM
# T8: LNX2_2, Q8N448
# T8 sequence (Q8N448 334-432, limits assumed, looked up): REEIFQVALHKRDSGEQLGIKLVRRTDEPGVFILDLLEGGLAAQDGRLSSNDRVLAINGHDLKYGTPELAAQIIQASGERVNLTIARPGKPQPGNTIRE
# T9: PDZRN3_1, Q9UPQ7
# T9 sequence (Q9UPQ7 244-349, limits assumed, looked up): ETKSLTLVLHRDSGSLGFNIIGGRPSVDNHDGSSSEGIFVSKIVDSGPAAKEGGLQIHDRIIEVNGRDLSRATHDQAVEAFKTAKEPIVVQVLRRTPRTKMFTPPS
# T10: RAPGEF6, Q8TEU7
# T10 sequence (Q8TEU7 525-625, limits assumed, looked up): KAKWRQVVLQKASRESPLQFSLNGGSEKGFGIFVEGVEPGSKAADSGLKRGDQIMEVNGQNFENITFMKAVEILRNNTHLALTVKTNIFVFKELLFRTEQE
# T11: SNTB1, Q13884
# T11 sequence (Q13884 107-205, limits assumed, looked up): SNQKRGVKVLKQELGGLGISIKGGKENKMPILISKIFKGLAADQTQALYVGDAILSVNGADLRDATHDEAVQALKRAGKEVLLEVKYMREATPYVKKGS
# Key:
# Assay in all cases: holdup assay
# Parameters in all cases: key: below the threshold = too weak to quantify, mostly under pKd 3.1 to 4
# Conditions in all cases: plain residues with an end cap or a label only (N-terminal biotin on a linker: ttds)
# APBA1_2, Q02410 = target: T1, APBA1_2, Q02410
# APBA2_1, Q99767 = target: T2, APBA2_1, Q99767
# ARHGAP21, Q5T5U3 = target: T3, ARHGAP21, Q5T5U3
# DFNB31_3, Q9P202 = target: T4, DFNB31_3, Q9P202
# DLG2_3, Q15700 = target: DLG2_3, Q15700
# DLG3_3, Q92796 = target: T5, DLG3_3, Q92796
# DLG5_1, Q8TDM6 = target: DLG5_1, Q8TDM6
# FRMPD2_2, Q68DX3 = target: FRMPD2_2, Q68DX3
# FRMPD3, Q5JV73 = target: FRMPD3, Q5JV73
# GRIP1_4, Q9Y3R0 = target: T6, GRIP1_4, Q9Y3R0
# GRIP2_4, Q9C0E4 = target: GRIP2_4, Q9C0E4
# HTRA3, P83110 = target: T7, HTRA3, P83110
# Inadl_10, Q8NI35 = target: Inadl_10, Q8NI35
# Inadl_4, Q8NI35 = target: Inadl_4, Q8NI35
# Inadl_5, Q8NI35 = target: Inadl_5, Q8NI35
# LAP2, Q96RT1 = target: LAP2, Q96RT1
# LNX1_3, Q8TBB1 = target: LNX1_3, Q8TBB1
# LNX2_2, Q8N448 = target: T8, LNX2_2, Q8N448
# MAGI1_1, Q96QZ7 = target: MAGI1_1, Q96QZ7
# MAGI2_3, Q86UL8 = target: MAGI2_3, Q86UL8
# MAGI2_5, Q86UL8 = target: MAGI2_5, Q86UL8
# NHERF2_2, Q15599 = target: NHERF2_2, Q15599
# PDZRN3_1, Q9UPQ7 = target: T9, PDZRN3_1, Q9UPQ7
# RAPGEF6, Q8TEU7 = target: T10, RAPGEF6, Q8TEU7
# SNTB1, Q13884 = target: T11, SNTB1, Q13884
# TJP1_3, Q07157 = target: TJP1_3, Q07157
# TJP1_3, Q07157, sequence (Q07157 416-512): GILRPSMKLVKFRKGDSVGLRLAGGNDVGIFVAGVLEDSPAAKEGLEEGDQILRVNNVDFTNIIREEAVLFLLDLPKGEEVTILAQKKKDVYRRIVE
# LNX1_3, Q8TBB1, sequence (Q8TBB1 500-596): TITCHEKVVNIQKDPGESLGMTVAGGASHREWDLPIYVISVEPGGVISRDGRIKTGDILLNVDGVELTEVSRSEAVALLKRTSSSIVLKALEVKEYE
# FRMPD2_2, Q68DX3, sequence (Q68DX3 944-1038): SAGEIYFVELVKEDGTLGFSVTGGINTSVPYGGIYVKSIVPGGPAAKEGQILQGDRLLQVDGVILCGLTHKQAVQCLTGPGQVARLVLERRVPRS
# Inadl_10, Q8NI35, sequence (Q8NI35 1673-1763): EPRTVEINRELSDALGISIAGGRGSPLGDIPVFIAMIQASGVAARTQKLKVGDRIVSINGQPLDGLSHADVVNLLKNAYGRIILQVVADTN
# LAP2, Q96RT1, sequence (Q96RT1 other isoform, or with tags, fused parts or gaps): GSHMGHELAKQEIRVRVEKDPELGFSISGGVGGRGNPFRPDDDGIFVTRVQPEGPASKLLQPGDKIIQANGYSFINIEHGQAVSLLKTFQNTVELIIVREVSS
# Inadl_4, Q8NI35, sequence (Q8NI35 547-651): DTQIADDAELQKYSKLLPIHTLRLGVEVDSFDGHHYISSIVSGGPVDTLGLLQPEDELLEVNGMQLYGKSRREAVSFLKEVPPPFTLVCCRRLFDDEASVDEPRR
# GRIP2_4, Q9C0E4, sequence (Q9C0E4 446-548): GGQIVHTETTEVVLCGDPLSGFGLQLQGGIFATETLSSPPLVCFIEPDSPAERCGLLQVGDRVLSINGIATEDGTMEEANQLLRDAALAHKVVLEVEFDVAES
# NHERF2_2, Q15599, sequence (Q15599 142-238): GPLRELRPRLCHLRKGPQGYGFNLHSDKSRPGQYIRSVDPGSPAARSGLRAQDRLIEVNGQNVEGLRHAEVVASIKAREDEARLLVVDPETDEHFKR
# MAGI2_5, Q86UL8, sequence (Q86UL8 915-1017): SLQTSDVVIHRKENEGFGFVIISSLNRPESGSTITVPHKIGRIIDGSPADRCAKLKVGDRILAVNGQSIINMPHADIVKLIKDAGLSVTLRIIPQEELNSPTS
# MAGI2_3, Q86UL8, sequence (Q86UL8 600-682): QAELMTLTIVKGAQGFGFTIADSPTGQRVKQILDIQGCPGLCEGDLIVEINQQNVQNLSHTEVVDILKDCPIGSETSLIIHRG
# DLG5_1, Q8TDM6, sequence (Q8TDM6 617-713): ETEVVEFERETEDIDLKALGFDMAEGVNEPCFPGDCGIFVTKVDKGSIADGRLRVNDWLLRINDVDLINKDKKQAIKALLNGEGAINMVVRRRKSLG
# FRMPD3, Q5JV73, sequence (Q5JV73 12-100): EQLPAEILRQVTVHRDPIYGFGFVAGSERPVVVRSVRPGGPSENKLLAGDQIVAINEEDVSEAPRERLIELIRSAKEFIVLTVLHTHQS
# MAGI1_1, Q96QZ7, sequence (Q96QZ7 1-106): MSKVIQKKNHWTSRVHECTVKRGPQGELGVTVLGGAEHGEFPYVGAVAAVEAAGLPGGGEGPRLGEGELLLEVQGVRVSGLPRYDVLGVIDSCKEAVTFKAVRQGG
# Inadl_5, Q8NI35, sequence (Q8NI35 673-780): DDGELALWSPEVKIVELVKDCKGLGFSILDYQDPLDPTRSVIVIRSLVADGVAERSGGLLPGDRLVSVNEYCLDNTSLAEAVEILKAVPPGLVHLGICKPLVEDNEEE
binder,measurement,setting,value
"STLTIFETAL [ABCC4, O15439]",pKd,"APBA1_2, Q02410",4.03
same,pKd,"APBA2_1, Q99767",below the threshold
same,pKd,"ARHGAP21, Q5T5U3",4.53
same,pKd,"DFNB31_3, Q9P202",below the threshold
same,pKd,"DLG2_3, Q15700",3.98
same,pKd,"DLG3_3, Q92796",3.83
same,pKd,"DLG5_1, Q8TDM6",below the threshold
same,pKd,"FRMPD2_2, Q68DX3",3.77
same,pKd,"FRMPD3, Q5JV73",3.6
same,pKd,"GRIP1_4, Q9Y3R0",below the threshold
same,pKd,"GRIP2_4, Q9C0E4",below the threshold
same,pKd,"HTRA3, P83110",below the threshold
same,pKd,"Inadl_10, Q8NI35",3.52
same,pKd,"Inadl_4, Q8NI35",below the threshold
same,pKd,"Inadl_5, Q8NI35",below the threshold
same,pKd,"LAP2, Q96RT1",4.57
same,pKd,"LNX1_3, Q8TBB1",below the threshold
same,pKd,"LNX2_2, Q8N448",below the threshold
same,pKd,"MAGI1_1, Q96QZ7",below the threshold
same,pKd,"MAGI2_3, Q86UL8",below the threshold
same,pKd,"MAGI2_5, Q86UL8",4.69
same,pKd,"NHERF2_2, Q15599",5.07
same,pKd,"PDZRN3_1, Q9UPQ7",5.46
same,pKd,"RAPGEF6, Q8TEU7",below the threshold
same,pKd,"SNTB1, Q13884",5.05
same,pKd,"TJP1_3, Q07157",below the threshold
